Test system: Bacillus subtilis
Assay: cleaved RNA product abundance (RNA/gDNA barcode ratio) relative to median wild-type variant (ratio to wild type); higher = more accumulation of the downstream cleavage product
Procedure, shortened: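 Cleaved product abundance was measured with barcoded reporter mRNAs (truncated aprE or tetM) carrying mutagenized RNase Y cleavage-site windows in the B. subtilis chromosome. Cultures in LB at 37°C grew from OD600 0.0003 to 0.3. Gel-selected cleaved RNA was reverse transcribed and barcode-sequenced with genomic DNA barcodes, and the RNA:gDNA barcode ratio per construct was scaled to the median construct bearing the unmutated site.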

[1] = experiment (reporter, strain, medium): exp 2b: truncated aprE reporter, strain BJT200, cleavage site: cggR-gapA (positions -7 to +36 mutated)
[2] = experiment (reporter, strain, medium): exp 4a: truncated aprE reporter, strain BJT201 with 2% xylose (RNase J1 expressed), cleavage site: cggR-gapA (positions -7 to +36 mutated)
[3] = experiment (reporter, strain, medium): exp 8a: truncated aprE reporter, strain BJT201 with 2% xylose (RNase J1 expressed), cleavage site: glnRA (positions -5 to +31 mutated)

| Sequence | cleaved RNA product abundance [1] | cleaved RNA product abundance [2] | cleaved RNA product abundance [3] |
| --- | --- | --- | --- |
| ACAGACGAAGGAGCCGCAAAGAAATAATTAAGGGATGAATAATCCCTCAATATAAATATCTCTCACTTATTTAAA | 0.25 | 0.381 | – |
| ACAGACGAAGGAGCCGCAAAGAAGTTATTTAGGGATGAATAATCACTCAATATAAATATCTCTCACTTATTTAAA | – | 0.137 | – |
| ACAGACGAAGGAGCCGCAAAGAAGTTATTAAGGGATGAATAATCCCTCAAAATAAACATCTCTCACTTATTTAAA | – | 0.316 | – |
| ACAGACGAAGGAGCCGCAAAGAAGTTATTAAGTGATGATTAATCCCTCAATATAAATATCTCTCACTTATTTAAA | 0.112 | – | – |
| ACAGACGAAGGAGCCGCAAAGAAGTTATTAAGGGATGTATAATCCCTCAATATAAATCTCTCTCACTTATTTAAA | – | 0.82 | – |
| ACAGACGAAGGAGCCGCAAAGAAGTTATTAAGGGATGAATAATCCCTCTATATAATTATCTCTCACTTATTTAAA | 0.29 | 0.309 | – |
| ACAGACGAAGGAGCCGCAAAGAAGTTATTAAGGTATTAATAATCCCTCAATATAAATATCTCTCACTTATTTAAA | 0.0984 | 0.169 | – |
| CGACATGTCCCGCTTCTTTCATTACTCCGTTAGCAACTGTTTTGCTATATCCATTTACCTTTTAAGAGGAGGAAT | – | – | 0.21 |
| ACAGACGAAGGAGCCGCAAAGAAGTTATTAAGGGATGAATAATCCCTCTATGTAAATATCTCTCACTTATTTAAA | 0.16 | 0.0964 | – |
| ACAGACGAAGGAGCCGCAAAGAAGTTATTAAAGGATGCATAATCCCTCAATATAAATATCTCTCACTTATTTAAA | – | 0.312 | – |
| ACAGACGAAGGAGCCGCAAAGAAGTTATTAAGCGATGAATAATCCCCCAATATAAATATCTCTCACTTATTTAAA | 0.0922 | 0.13 | – |
| CGACATGTCCCGCTTCTTTCATTAATCCGTTACCAACAGTTTTGCTATATACATTTACCTTTTAAGAGGAGGAAT | – | – | 0.215 |
| ACAGACGAAGGAGCCGCAAATAAGTTATTAAGGGATGCATAATCCCTCAATATAAATATCTCTCACTTATTTAAA | – | 1.1 | – |
| CGACATGTCCCGCTTCTTTCATTAATCCGTAAGCAACTGTTTTGCTAAATACATTTACCTTTTAAGAGGAGGAAT | – | – | 0.36 |
| ACAGACGAAGGAGCCGCAAAGAAGTTATTAAGGGATGAATAATCCATCAATATAAATCTCTCTCACTTATTTAAA | – | 0.17 | – |
| ACAGACGAAGGAGCCGCAAAGAAGTTATTAAGGGATGAATAATACCTCAATATAAATTTCTCTCACTTATTTAAA | – | 0.15 | – |
| ACAGACGAAGGAGCCGCATAGAAGTTATTAAGGCATGAATAAGCCCTCAATATAAATATCTCTCACTTATTTAAA | – | 0.143 | – |
| ACAGACGAAGGAGCCGCAAAGAAGTTATAAAGGGGTGAATAATCCCTCAATATAAATATCTCTCACTTATTTAAA | – | 0.422 | – |
| ACAGACGAAGGAGCCGCAAAGAAGTTATTACGGAATGAATAATCCCTCAATATAAATATCTCTCACTTATTTAAA | 0.1 | 0.0966 | – |
| CGACATGTCCCGCTTCTTTCATTAATCGGTTAGCAACTGTTTTGCTATATATATTTACCTTTTAAGAGGAGGAAT | – | – | 0.947 |
| ACAGACGAAGGAGCCGCAAAAAAGTTATTAAGCGATGAATAATCCCTCAATATAAATATCTCTCACTTATTTAAA | 0.091 | 0.123 | – |

| Sequence | cleaved RNA product abundance [1] | cleaved RNA product abundance [2] | cleaved RNA product abundance [3] |
| --- | --- | --- | --- |
| ACAGACGAAGGAGCCGCAGAGAAGTTTTTAAGGGATGAATAATCCCTCAATATAAATATCTCTCACTTATTTAAA | – | 0.37 | – |
| CGACATGTCCCGCTTCTTTCATTAATCTTTTAGCAACTGTTTTGCTATATACATTTACCTTTTAAGAGGAGGAAT | – | – | 1.14 |
| CGACATGTCCCGCTTCTTTCATTATTCCGTTAGCAACTGTATTGCTATATACATTTACCTTTTAAGAGGAGGAAT | – | – | 1.36 |
| ACAGACGAAGGAGCCGCAAAGAAGTTATTAAGGCATGAATAATACCTCAATATAAATATCTCTCACTTATTTAAA | 0.0988 | 0.153 | – |
| ACAGACGAAGGAGCCGCAAAGAAGTTATTAAGGGCTGAATAAACCCTCAATATAAATATCTCTCACTTATTTAAA | – | 0.47 | – |
| ACAGACGAAGGAGCCGCAAAGAATTTATTTAGGAATGAATAATCCCTCAATATAAATATCTCTCACTTATTTAAA | – | 0.0547 | – |
| ACAGACGAAGGAGCCGCAAAGAAGTTATTAATGGATGAATAAGCCCTCAATATAAATATCTCTCACTTATTTAAA | – | 0.107 | – |
| ACAGACGAAGGAGCCGCAAAGTAGTTCTTAAGGGATGAATAATCCCTCAATATAAATATCTCTCACTTATTTAAA | – | 0.195 | – |
| ACAGACGAAGGAGCCGCAAATAAGTTATTAAGGGATGAATAATCCGTCAATATAAATATCTCTCACTTATTTAAA | – | 0.299 | – |
| ACAGACGAAGGAGCCGCTAAGAAGTTATTAAGGGATGAATAATCCCTCAAGATAAATATCTCTCACTTATTTAAA | 0.249 | 0.322 | – |
| ACAGACGAAGGAGCCGCAAAGAAGTTATTAAGCTATGAATAATCCCTCAATATAAATATCTCTCACTTATTTAAA | 0.0874 | 0.104 | – |
| ACAGACGAAGGAGCCGCAAAGAAGTGATTAAGGGATGAATAATCCCTAAATATAAATATCTCTCACTTATTTAAA | – | 0.388 | – |
| CGACATGTCCCGCTTCTTTCATTAATCTGTTAGCAACTGTTTTGCTATAAACATTTACCTTTTAAGAGGAGGAAT | – | – | 0.917 |
| CGACATGTCCCGCTTCTTTCATTAATCCGTTAGCAACAGGTTTGCTATATACATTTACCTTTTAAGAGGAGGAAT | – | – | 0.389 |
| CGACATGTCCCGCTTCTTTCATTATTCCGTTAGCTACTGTTTTGCTATATACATTTACCTTTTAAGAGGAGGAAT | – | – | 0.764 |
| ACAGACGAAGGAGCCGCAAAGAAGTTATTAATGGATGAATACTCCCTCAATATAAATATCTCTCACTTATTTAAA | – | 0.0655 | – |
| ACAGACGAAGGAGCCGCATAGAAGTTATTAAGGGAAGAATAATCCCTCAATATAAATATCTCTCACTTATTTAAA | – | 0.6 | – |
| ACAGACGAAGGAGCCGCAAAGAAGTTATTACGAGATGAATAATCCCTCAATATAAATATCTCTCACTTATTTAAA | 0.104 | 0.113 | – |
| ACAGACGAAGGAGCCGCAAAGAAGTTATTAAAGGTTGAATAATCCCTCAATATAAATATCTCTCACTTATTTAAA | – | 0.0853 | – |
| ACAGACGAAGGAGCCGCAAAGAAGTAATTAAGGGGTGAATAATCCCTCAATATAAATATCTCTCACTTATTTAAA | – | 0.308 | – |
| CGACATGTCCCGCTTCTTTCATTAAACCGTTAGAAACTGTTTTGCTATATACATTTACCTTTTAAGAGGAGGAAT | – | – | 0.147 |

| Sequence | cleaved RNA product abundance [1] | cleaved RNA product abundance [2] | cleaved RNA product abundance [3] |
| --- | --- | --- | --- |
| ACAGACGAAGGAGCCGCAAAGAACTTATTAAGGGATGAATAATCCCTCAACATAAATATCTCTCACTTATTTAAA | – | 0.227 | – |
| ACAGACGAAGGAGCCGCAAAGAAGTTATTAAGGGATGAATAATCCCACATTATAAATATCTCTCACTTATTTAAA | – | 0.152 | – |
| ACAGACGAAGGAGCCGCAAAGAAGTTATTAAGGGATGACTAATCCCTCAATATAATTATCTCTCACTTATTTAAA | – | 0.282 | – |
| ACAGACGAAGGAGCCGCAAAGAAGTTACTAAGGGATGCATAATCCCTCAATATAAATATCTCTCACTTATTTAAA | – | 0.235 | – |
| CGACATGTCCCGCTTCTTTCATTAATCCGTTAGCAATGGTTTTGCTATATACATTTACCTTTTAAGAGGAGGAAT | – | – | 1.08 |
| ACAGACGAAGGAGCCGCAAAGAAGTTATTAATGGATGATTAATCCCTCAATATAAATATCTCTCACTTATTTAAA | – | 0.138 | – |
| ACAGACGAAGGAGCCGCAAAGAAGTTATTAAGTGAGGAATAATCCCTCAATATAAATATCTCTCACTTATTTAAA | – | 0.16 | – |
| CGACATGTCCCGCTTCTTTCATTAATCCGTTAACAACTGTTTTGCCATATACATTTACCTTTTAAGAGGAGGAAT | – | – | 0.114 |
| ACAGACGAAGGAGCCGCAAAGAAGTTATTAAGGGATGAATAATACTTCAATATAAATATCTCTCACTTATTTAAA | 0.094 | 0.111 | – |
| ACAGACGAAGGAGCCGCAAAGAAGTTATTAAGCGATGAATAATCCCTCAAAATAAATATCTCTCACTTATTTAAA | 0.0793 | 0.108 | – |
| ACAGACGAAGGAGCCGCAAAGAAGTTATTATGGGATGAATAATCCCTCTATATAAATATCTCTCACTTATTTAAA | – | 0.223 | – |
| ACAGACGAAGGAGCCGCAAAGAAGTTATTAAGGGATGAATAATCCCTCAATATAAATATCTCTCACTTATTTAAG | 0.868 | 0.646 | – |
| ACAGACGAAGGAGCCGCAAAGAAGTTATTAAGTGTTGAATAATCCCTTAATATAAATATCTCTCACTTATTTAAA | – | 0.146 | – |
| ACAGACGAAGGAGCCGCAAAGATGTTATCAAGGGATGAATAATCCCTCAATATAAATATCTCTCACTTATTTAAA | 0.239 | 0.328 | – |
| ACAGACGAAGGAGCCGCATAGAAGTTATTAAGTGATGAATAATCCCTCAATATAAATATCTCTCACTTATTTAAA | 0.121 | 0.0818 | – |
| CGACATGTCCCGCTTCTTTCATTAATCCGTTAGCAACTATATTGCTATATACATTTACCTTTTAAGAGGAGGAAT | – | – | 1.45 |
| ACAGACGAAGGAGCCGCAAAGAAGTTATTAAGGGATGAATAATCCCTAAATATACATATCTCTCACTTATTTAAA | 0.498 | 0.465 | – |
| ACAGACGAAGGAGCCGCAAAGAAGTTATTAAGAGGTGAATAATCCCTCAATATAAATATCTCTCACTTATTTAAA | – | 0.253 | – |
| CGACATGTCCCGCTTCTTTCATTAATCCGTTAGCAACTGTTACGCTATATACATTTACCTTTTAAGAGGAGGAAT | – | – | 0.54 |
